In assay [1] the target is VISTA (V-Domain Ig Suppressor of T Cell Activation) expressed on human cells (human) (UniProt Q9H7M9). In words: cell-based or functional assay.
Assay [2] concerns the target T1, P-selectin glycoprotein ligand 1 (PSGL-1) expressed on human cells (human) (UniProt Q14242).
T1 sequence: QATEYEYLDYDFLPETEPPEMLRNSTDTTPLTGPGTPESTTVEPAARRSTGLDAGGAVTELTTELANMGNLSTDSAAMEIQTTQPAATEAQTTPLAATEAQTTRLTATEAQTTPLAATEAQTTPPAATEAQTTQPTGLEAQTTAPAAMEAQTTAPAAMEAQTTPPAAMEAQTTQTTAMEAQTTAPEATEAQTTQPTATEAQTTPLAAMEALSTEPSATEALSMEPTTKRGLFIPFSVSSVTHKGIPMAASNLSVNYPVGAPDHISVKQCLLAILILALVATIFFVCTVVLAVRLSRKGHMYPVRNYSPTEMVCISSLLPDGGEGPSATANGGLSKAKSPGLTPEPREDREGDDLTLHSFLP
Kind of assay: CAPTIREC (TRICEPS) ligand-receptor capture on naive human T cells, LC-MS/MS; enrichment against the anti-CD28 antibody control.

Chain of VISTA (V-Domain Ig Suppressor of T Cell Activation) expressed on human cells (human) (Q9H7M9 33-311): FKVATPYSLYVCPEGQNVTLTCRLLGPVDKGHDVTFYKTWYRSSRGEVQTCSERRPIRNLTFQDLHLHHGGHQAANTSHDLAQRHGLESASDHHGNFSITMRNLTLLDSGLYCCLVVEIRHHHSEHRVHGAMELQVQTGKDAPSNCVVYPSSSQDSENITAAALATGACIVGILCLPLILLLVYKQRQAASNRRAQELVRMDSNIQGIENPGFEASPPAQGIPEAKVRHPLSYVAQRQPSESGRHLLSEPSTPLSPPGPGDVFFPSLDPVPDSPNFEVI
Chain of VISTA-Fc fusion protein (chain): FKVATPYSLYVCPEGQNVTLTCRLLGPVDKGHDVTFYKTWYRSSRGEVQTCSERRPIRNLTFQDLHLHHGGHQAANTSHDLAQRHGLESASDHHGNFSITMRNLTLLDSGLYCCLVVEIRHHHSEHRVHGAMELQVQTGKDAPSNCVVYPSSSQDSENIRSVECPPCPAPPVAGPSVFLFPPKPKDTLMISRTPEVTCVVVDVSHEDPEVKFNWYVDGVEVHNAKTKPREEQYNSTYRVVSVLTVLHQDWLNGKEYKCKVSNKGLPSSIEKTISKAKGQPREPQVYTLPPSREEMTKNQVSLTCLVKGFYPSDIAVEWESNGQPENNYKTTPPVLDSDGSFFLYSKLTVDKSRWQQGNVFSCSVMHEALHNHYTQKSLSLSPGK

As to “PSGL-1-Fc fusion protein (Example VIII) (from UniProt Q14242 18-320)”, the fold decrease in IL-2 release from CD4+ T cells (72 h) in assay [1] is 2 fold.

As for VISTA-Fc fusion protein, in assay [2], the Log2 FC (log2 fold change) amounted to 2.33.

Source of the values: patent US20230243836A1.
